Among the data in patent US20100047166A1 (published 2010) are Kd values, retold here.

The experiment concerns the target T1, 58P1D12 protein expressed on the cell surface (3T3-58P1D12, MDCK/58P1D12, OVCAR-5/58P1D12, xenograft cells) (human, UniProt Q9H9P2 22-273).
T1 construct: also called cell surface 58P1D12; 58P1D12-3T3
T1 sequence: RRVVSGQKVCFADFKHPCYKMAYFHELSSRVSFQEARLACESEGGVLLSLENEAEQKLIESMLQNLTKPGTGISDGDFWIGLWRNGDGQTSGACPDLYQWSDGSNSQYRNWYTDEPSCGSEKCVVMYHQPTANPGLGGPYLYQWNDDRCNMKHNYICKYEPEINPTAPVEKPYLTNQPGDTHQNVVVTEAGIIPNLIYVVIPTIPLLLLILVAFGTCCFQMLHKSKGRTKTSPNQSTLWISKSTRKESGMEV
Nature of the experiment: FACS saturation binding on 3T3-58P1D12 cells, one site binding fit.

B1: 58P1D12 MAb Ha8-4c4.1 (hybridoma ATCC PTA-9404) (antibody, V domains shown)
VH: QVQLQESGPGLVKPSETLSLTCTVSGGSVSSGGYYWSWIRQPPGKGLEWIGYIYYSGGTNYNPSLKSRVTISVDTSKNQFSLKLTSVTAADTAVYYCARESGYCTNVACFPDAFDIWGQGTMVTVSS
VL: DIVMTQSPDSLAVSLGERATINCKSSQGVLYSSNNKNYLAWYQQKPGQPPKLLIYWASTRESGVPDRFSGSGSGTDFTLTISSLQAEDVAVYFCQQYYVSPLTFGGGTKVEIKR
notes: Fully human IgG1 kappa (gamma 1 kappa) from XenoMouse
B1 yielded a Kd of 3 nM.

The Kd is a measure of binding affinity in units of concentration.
